Data taken from US20200330548A1 (SYNERGY PHARMACEUTICALS, published 2020).
Bridge positions count the residues as written; N and C are the ends. Square brackets hold non-standard residues; d marks the D form. Ends that are not written are not given here.

Columns and labels:
[1] = target: guanylate cyclase-C (GC-C) on T84 cells (human, UniProt P25092 24-1073); test: cell-based or functional assay
[2] = target: T1, guanylate cyclase-C (GC-C) on rat jejunum tissue (rat, UniProt P23897 23-1072); test: cell-based or functional assay
T1 sequence (looked up): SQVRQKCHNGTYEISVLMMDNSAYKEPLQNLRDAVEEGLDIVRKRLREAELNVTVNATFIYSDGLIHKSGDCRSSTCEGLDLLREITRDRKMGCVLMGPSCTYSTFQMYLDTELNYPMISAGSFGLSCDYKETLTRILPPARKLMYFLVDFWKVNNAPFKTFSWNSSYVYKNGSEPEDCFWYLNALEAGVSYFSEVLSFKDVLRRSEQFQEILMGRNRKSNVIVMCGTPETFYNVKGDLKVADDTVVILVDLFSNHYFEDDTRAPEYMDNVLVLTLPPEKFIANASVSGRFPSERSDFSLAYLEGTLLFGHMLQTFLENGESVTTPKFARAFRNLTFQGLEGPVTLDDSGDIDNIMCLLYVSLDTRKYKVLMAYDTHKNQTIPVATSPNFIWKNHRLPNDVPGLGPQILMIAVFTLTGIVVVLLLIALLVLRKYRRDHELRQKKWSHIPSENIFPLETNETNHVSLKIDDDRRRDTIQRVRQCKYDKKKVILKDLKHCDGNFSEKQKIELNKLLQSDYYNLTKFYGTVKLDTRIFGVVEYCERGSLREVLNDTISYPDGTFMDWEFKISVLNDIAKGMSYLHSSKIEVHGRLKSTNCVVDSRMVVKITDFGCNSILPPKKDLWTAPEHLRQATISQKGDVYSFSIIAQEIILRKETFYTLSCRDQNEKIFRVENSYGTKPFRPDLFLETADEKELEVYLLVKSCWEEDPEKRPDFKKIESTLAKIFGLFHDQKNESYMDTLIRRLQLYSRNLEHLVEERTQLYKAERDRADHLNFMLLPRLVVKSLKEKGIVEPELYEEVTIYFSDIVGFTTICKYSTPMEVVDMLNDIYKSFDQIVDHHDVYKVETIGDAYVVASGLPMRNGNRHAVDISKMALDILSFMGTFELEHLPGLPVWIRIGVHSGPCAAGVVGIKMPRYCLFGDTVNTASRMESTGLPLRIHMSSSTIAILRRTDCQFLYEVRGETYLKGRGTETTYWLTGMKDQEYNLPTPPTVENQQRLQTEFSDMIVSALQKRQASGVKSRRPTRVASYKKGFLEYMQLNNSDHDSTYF

Chain of guanylate cyclase-C (GC-C) on T84 cells (P25092 24-1073): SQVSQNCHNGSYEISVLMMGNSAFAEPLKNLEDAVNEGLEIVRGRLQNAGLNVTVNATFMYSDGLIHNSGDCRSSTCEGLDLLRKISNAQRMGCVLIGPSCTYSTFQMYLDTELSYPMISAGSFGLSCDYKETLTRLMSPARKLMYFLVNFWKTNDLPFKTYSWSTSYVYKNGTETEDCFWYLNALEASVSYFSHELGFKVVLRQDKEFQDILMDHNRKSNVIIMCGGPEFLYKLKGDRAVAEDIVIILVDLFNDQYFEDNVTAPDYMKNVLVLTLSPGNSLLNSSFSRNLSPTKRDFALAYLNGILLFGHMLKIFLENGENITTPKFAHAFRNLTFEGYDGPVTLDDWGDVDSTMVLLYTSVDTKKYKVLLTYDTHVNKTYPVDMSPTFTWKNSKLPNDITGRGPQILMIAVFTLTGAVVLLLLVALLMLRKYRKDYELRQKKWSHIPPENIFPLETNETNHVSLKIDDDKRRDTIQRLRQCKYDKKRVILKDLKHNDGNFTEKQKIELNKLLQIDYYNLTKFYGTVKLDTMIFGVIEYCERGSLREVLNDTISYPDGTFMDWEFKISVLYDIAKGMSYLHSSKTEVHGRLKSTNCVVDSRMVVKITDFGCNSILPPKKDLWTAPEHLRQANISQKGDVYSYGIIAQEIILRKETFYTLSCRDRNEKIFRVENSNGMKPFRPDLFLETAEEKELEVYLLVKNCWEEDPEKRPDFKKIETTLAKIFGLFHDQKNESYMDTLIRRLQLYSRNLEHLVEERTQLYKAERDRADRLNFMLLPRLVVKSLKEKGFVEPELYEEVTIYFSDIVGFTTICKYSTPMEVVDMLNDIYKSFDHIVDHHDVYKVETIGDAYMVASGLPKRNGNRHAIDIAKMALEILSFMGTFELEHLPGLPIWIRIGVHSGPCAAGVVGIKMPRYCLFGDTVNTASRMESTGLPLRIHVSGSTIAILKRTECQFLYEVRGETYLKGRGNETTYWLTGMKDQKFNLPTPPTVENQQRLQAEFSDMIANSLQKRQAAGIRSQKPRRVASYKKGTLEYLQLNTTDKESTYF

short-circuit current (Isc, chloride current) across T84 cells monolayer, Ussing chamber; EC50 [1]: 169 nM | short-circuit current (Isc, chloride current) across rat jejunum tissue, Ussing chamber; EC50 [2]: 299 nM
B1: SP-333 (peptide)
peptide: [dN]DECELCVNVACTGC[dL]
modifications: disulfide 4-12, 7-15
